In patent US20020155563A1 (Bristol-Myers Squibb, published 2002):

Biological target: T1, Grb2 (adapter protein, from Jurkat T cell lysates) (human, UniProt P62993 1-217)
T1 construct: also called adapter protein Grb2
Experiment: pull-down from Jurkat lysates on Talon beads, anti-Grb2 immunoblot
Experimental: In this Example, experiments were performed to determine if human MIST provided by the present invention associated with signaling proteins critical for cell activation. For this purpose, cell lysates from unstimulated Jurkat T cells, or TCR/CD3-activated Jurkat T cells, were prepared and precipitated with Talon resin beads (Clontech, Palo Alto, Calif.) preloaded with equivalent amounts (5 μg total) of His-MIST fusion proteins. The phosphotyrosine content of precipitated proteins was analyzed by SDS-PAGE followed by Western blotting with an anti-phosphotyrosine specific antibody (4G10, UBI, Hauppague, N.Y.).
More specifically, Jurkat T cells (10⁷/lane) were unstimulated, or were stimulated with monoclonal antibody (MoAb) to the T-cell receptor TCR/CD3 (G19-4-BMS) for 5 minutes at 37° C., and then lysed in 1% NP40-containing lysis buffer and incubated with Talon beads preloaded with equivalent amounts (50 μl of slurry resin) of the indicated His-MIST fusion proteins. Reactants and immunoprecipitates were subjected to SDS-PAGE on 4-20% gradient gels. […] Blot stripping was performed and the membrane was subsequently re-probed with anti-Grb2 MoAb (Santa Cruz Biotechnology, Inc., Santa Cruz, Calif.), anti-Cbl MoAb (Santa Cruz Biotechnology, Inc., Santa Cruz, Calif.), or anti-Vav1 MoAb (Upstate Biotechnology, Inc., Lake Placid, N.Y.).

T1 sequence (P62993 whole entry): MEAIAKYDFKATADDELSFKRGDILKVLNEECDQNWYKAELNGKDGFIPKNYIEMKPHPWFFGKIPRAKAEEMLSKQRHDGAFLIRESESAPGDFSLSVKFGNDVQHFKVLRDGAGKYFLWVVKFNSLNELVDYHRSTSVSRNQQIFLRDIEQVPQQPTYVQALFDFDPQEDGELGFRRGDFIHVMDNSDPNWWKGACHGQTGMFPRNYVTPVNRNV

B1: His-MIST-SH2 (poly-histidine tagged MIST SH2 domain, residues 320-443) (other, not shown: small tags and cut ends)
chain: QHNEWYIGEYSRQAVEEAFMKENKDGSFLVRDCSTKSKEEPYVLAVFYENKVYNVKIRFLERNQQFALGTGLRGDEKFDSVEDIIEHYKNFPIILIDGKDKTGVHRKQCHLTQPLPLTRHLLPL
notes: Recombinant, Sf9 cells; also called His-MIST-SH2 fusion protein
- binding result: no binding
